The results in this text go back to paper PMC4243247 (Nature Communications, 2014).

Assay [1] deals with T1, USP4 catalytic domain (USP4 CD, residues 296–925) (human, UniProt Q13107 296-925).
T1 sequence (looked up): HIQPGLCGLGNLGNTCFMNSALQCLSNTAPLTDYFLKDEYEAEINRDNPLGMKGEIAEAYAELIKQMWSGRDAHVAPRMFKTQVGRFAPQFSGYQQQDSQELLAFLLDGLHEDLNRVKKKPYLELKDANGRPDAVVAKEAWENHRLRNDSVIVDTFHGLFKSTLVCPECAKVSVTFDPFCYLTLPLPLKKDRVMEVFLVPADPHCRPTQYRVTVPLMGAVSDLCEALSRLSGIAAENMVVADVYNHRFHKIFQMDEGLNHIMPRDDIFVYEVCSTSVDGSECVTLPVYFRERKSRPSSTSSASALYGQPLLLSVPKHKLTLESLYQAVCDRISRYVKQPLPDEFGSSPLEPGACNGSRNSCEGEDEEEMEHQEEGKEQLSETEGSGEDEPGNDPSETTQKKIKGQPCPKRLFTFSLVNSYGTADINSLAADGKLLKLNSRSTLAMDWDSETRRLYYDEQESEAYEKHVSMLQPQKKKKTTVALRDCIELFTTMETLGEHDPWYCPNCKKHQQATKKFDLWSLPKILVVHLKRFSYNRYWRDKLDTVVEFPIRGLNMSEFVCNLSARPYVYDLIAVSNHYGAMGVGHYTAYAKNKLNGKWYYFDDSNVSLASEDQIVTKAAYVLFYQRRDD
Nature of the assay: cell-based or functional assay.

Assay [2] deals with T2, USP4 insert (residues 483–765), biotinylated on lysines (human, UniProt Q13107 483-765, biotin on lysines (half molar amounts of EZ-Link Sulfo-NHS-LC-LC-biotin)).
T2 construct: USP4, human, the domain inserted within the catalytic core (carries a Ubl domain), residues 483-765; source: E. coli BL21(DE3), purified, then biotinylated
T2 sequence (looked up): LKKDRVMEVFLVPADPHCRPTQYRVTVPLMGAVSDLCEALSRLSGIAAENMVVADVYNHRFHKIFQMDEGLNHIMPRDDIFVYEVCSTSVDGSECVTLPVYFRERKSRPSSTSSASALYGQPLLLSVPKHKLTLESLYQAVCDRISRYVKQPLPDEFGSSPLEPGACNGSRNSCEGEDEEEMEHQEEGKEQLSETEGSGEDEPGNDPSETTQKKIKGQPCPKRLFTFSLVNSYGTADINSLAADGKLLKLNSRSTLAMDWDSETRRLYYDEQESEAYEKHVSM
Put plainly: SPR; Biacore T100, 25 °C; ~100 RU of biotinylated USP4 construct on SA chip; DUSP–Ubl concentration series flowed at 30 μl/min in 20 mM HEPES pH 7.5, 150 mM NaCl, 5 mM DTT, 0.05% Tween 20 with NSB reducer; apparent KD from EvilFit after removing the slow nonspecific off-rate component. The settings on record: both partners purified. (In general: SPR reads the build-up and loss of mass on a sensor chip optically.)

Assay [3] concerns the target T3, USP4 CD (residues 296–925), biotinylated on lysines (human, UniProt Q13107 296-925, biotin on lysines (half molar amounts of EZ-Link Sulfo-NHS-LC-LC-biotin)).
T3 construct: USP4, human, catalytic domain with the insert, residues 296-925; same construct as m2, biotinylated for capture on the SA sensor chip; also called immobilized USP4 CD; biotinylated USP4; source: E. coli BL21(DE3), purified, then biotinylated
T3 sequence (looked up): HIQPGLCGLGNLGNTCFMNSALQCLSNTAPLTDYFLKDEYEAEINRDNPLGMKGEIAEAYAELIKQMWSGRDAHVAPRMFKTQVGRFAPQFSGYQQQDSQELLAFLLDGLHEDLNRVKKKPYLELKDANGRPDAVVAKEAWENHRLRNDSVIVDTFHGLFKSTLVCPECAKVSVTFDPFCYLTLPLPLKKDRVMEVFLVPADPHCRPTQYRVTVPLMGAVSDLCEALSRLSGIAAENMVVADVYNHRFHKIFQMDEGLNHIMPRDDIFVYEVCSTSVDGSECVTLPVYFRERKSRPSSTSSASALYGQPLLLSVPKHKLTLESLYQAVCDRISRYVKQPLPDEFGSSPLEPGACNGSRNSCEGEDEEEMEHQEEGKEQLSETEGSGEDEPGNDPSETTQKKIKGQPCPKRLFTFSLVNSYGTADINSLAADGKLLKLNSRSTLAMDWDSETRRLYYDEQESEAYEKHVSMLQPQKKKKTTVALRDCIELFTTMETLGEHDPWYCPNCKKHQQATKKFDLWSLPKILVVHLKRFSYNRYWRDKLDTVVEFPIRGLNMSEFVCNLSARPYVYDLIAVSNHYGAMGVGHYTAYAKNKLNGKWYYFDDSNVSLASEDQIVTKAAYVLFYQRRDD
The assay is described as above. The settings on record: both partners purified.

Assay [4] concerns the target T4, N-terminally TAMRA-labelled ubiquitin (UniProt P0CG48 1-76, TAMRA on the N-terminus).
T4 construct: ubiquitin, the cut product of the ubiquitin precursors; also called TAMRAUb; TAMRA-Ubiquitin
Put plainly: fluorescence polarisation; equilibrium: different concentrations of USP4 with 2.5 nM TAMRA-ubiquitin; same setup as the Ub–Rhod assays (25 °C, 20 mM HEPES pH 7.5, 150 mM NaCl, 5 mM DTT, 0.05% Tween 20); one-site binding model accounting for ligand depletion. The settings on record: both partners purified. A general note: In fluorescence polarisation assays a small probe gives low polarisation when free and higher when bound to something large.

For assay [5], the target named is T4, N-terminally TAMRA-labelled ubiquitin. Put plainly: fluorescence polarisation; stopped-flow, association: equal volumes of USP4 (100–1,000 nM) and TAMRA-ubiquitin rapidly mixed; 20 °C; 20 mM HEPES pH 7.5, 150 mM NaCl, 5 mM DTT, 0.05% Tween 20; single exponential, kon as slope of Kobs against USP4 concentration. The settings on record: both partners purified.
The target is the same in assay [6]. Nature of the assay: fluorescence polarisation; stopped-flow, dissociation: USP4 constructs (12.5–250 nM) incubated with 2.5 nM TAMRA-ubiquitin 10–30 min, mixed with equal volume of 2.5 μM non-labelled ubiquitin; 20 °C; 20 mM HEPES pH 7.5, 150 mM NaCl, 5 mM DTT, 0.05% Tween 20; global fit to a two-phase decay (k_slow, k_fast). The settings on record: both partners purified.

B1: USP4 DUSP–Ubl domain (residues 8–228) (domain or fragment, human, UniProt Q13107 8-228, looked up)
chain: RERPDAETQKSELGPLMRTTLQRGAQWYLIDSRWFKQWKKYVGFDSWDMYNVGEHNLFPGPIDNSGLFSDPESQTLKEHLIDELDYVLVPTEAWNKLLNWYGCVEGQQPIVRKVVEHGLFVKHCKVEVYLLELKLCENSDPTNVLSCHFSKADTIATIEKEMRKLFNIPAERETRLWNKYMSNTYEQLSKLDNTVQDAGLYQGQVLVIEPQNEDGTWPRQT
notes: USP4, human, N-terminal tandem DUSP–Ubl domain, residues 8-228
With B1, the “Ub–Rhod catalytic rate of USP4 CD (50 nM, 5 μM substrate) with DUSP–Ubl added in trans at different concentrations up to 150 μM” value in assay [1] is roughly 9 fold. Further, the results for the Kd in assay [2] and in assay [3] were roughly 44 µM and roughly 100 µM, respectively.

B2: USP4 DUSP–Ubl Y136A (domain or fragment, human, UniProt Q13107 8-228, looked up)
chain: RERPDAETQKSELGPLMRTTLQRGAQWYLIDSRWFKQWKKYVGFDSWDMYNVGEHNLFPGPIDNSGLFSDPESQTLKEHLIDELDYVLVPTEAWNKLLNWYGCVEGQQPIVRKVVEHGLFVKHCKVEVALLELKLCENSDPTNVLSCHFSKADTIATIEKEMRKLFNIPAERETRLWNKYMSNTYEQLSKLDNTVQDAGLYQGQVLVIEPQNEDGTWPRQT
notes: USP4, human, DUSP–Ubl domain residues 8-228 with Y136A at the interface of the DUSP and Ubl domains; also called mutant DUSP–Ubl
For the molecule B2, the binding result in assay [2] and in assay [3] was “binds” in each case.

B3: USP4 CD F386G (domain or fragment, human, UniProt Q13107 296-925, looked up)
chain: HIQPGLCGLGNLGNTCFMNSALQCLSNTAPLTDYFLKDEYEAEINRDNPLGMKGEIAEAYAELIKQMWSGRDAHVAPRMFKTQVGRFAPQGSGYQQQDSQELLAFLLDGLHEDLNRVKKKPYLELKDANGRPDAVVAKEAWENHRLRNDSVIVDTFHGLFKSTLVCPECAKVSVTFDPFCYLTLPLPLKKDRVMEVFLVPADPHCRPTQYRVTVPLMGAVSDLCEALSRLSGIAAENMVVADVYNHRFHKIFQMDEGLNHIMPRDDIFVYEVCSTSVDGSECVTLPVYFRERKSRPSSTSSASALYGQPLLLSVPKHKLTLESLYQAVCDRISRYVKQPLPDEFGSSPLEPGACNGSRNSCEGEDEEEMEHQEEGKEQLSETEGSGEDEPGNDPSETTQKKIKGQPCPKRLFTFSLVNSYGTADINSLAADGKLLKLNSRSTLAMDWDSETRRLYYDEQESEAYEKHVSMLQPQKKKKTTVALRDCIELFTTMETLGEHDPWYCPNCKKHQQATKKFDLWSLPKILVVHLKRFSYNRYWRDKLDTVVEFPIRGLNMSEFVCNLSARPYVYDLIAVSNHYGAMGVGHYTAYAKNKLNGKWYYFDDSNVSLASEDQIVTKAAYVLFYQRRDD
notes: USP4, human, catalytic domain residues 296-925, switching loop mutant F386G; made with the QuickChange mutagenesis kit
Take B3: the Kd in assay [4] is roughly 1 µM. Also, in assay [5], the association rate constant (kon) stood at 35000 ± 7000 M⁻¹ s⁻¹. In assay [6], the “k_fast (dissociation, fast component)” value is 0.12 ± 0.016 s⁻¹ and the “k_slow (dissociation, slow component)” value worked out at 0.015 ± 0.0006 s⁻¹.

B4: USP4 FL F386G (enzyme, human, UniProt Q13107 8-925, looked up)
chain: RERPDAETQKSELGPLMRTTLQRGAQWYLIDSRWFKQWKKYVGFDSWDMYNVGEHNLFPGPIDNSGLFSDPESQTLKEHLIDELDYVLVPTEAWNKLLNWYGCVEGQQPIVRKVVEHGLFVKHCKVEVYLLELKLCENSDPTNVLSCHFSKADTIATIEKEMRKLFNIPAERETRLWNKYMSNTYEQLSKLDNTVQDAGLYQGQVLVIEPQNEDGTWPRQTLQSKSSTAPSRNFTTSPKSSASPYSSVSASLIANGDSTSTCGMHSSGVSRGGSGFSASYNCQEPPSSHIQPGLCGLGNLGNTCFMNSALQCLSNTAPLTDYFLKDEYEAEINRDNPLGMKGEIAEAYAELIKQMWSGRDAHVAPRMFKTQVGRFAPQGSGYQQQDSQELLAFLLDGLHEDLNRVKKKPYLELKDANGRPDAVVAKEAWENHRLRNDSVIVDTFHGLFKSTLVCPECAKVSVTFDPFCYLTLPLPLKKDRVMEVFLVPADPHCRPTQYRVTVPLMGAVSDLCEALSRLSGIAAENMVVADVYNHRFHKIFQMDEGLNHIMPRDDIFVYEVCSTSVDGSECVTLPVYFRERKSRPSSTSSASALYGQPLLLSVPKHKLTLESLYQAVCDRISRYVKQPLPDEFGSSPLEPGACNGSRNSCEGEDEEEMEHQEEGKEQLSETEGSGEDEPGNDPSETTQKKIKGQPCPKRLFTFSLVNSYGTADINSLAADGKLLKLNSRSTLAMDWDSETRRLYYDEQESEAYEKHVSMLQPQKKKKTTVALRDCIELFTTMETLGEHDPWYCPNCKKHQQATKKFDLWSLPKILVVHLKRFSYNRYWRDKLDTVVEFPIRGLNMSEFVCNLSARPYVYDLIAVSNHYGAMGVGHYTAYAKNKLNGKWYYFDDSNVSLASEDQIVTKAAYVLFYQRRDD
notes: USP4, human, residues 8-925, switching loop mutant F386G; made with the QuickChange mutagenesis kit
Regarding B4, in assay [6], the “k_fast (dissociation, fast component)” value worked out at 0.26 ± 0.01 s⁻¹ and the “k_slow (dissociation, slow component)” value worked out at 0.024 ± 0.002 s⁻¹.

By kon is commonly meant a measure of how fast the partners come together. High values mean faster complex formation, low ones slower complex formation.
